Experimental data as given in US20250218531A1.
Where “and” joins values, the source holds several entries; their conditions need not be identical. Equal values may be shown once. Read-outs that look alike come from different tables or passages of the source.

What was measured:
[1] = biological target: human epidermal growth factor receptor 2 (HER2) extracellular domain (human) (UniProt P04626); experiment: SPR, table row 12
[2] = biological target: human vascular endothelial growth factor A (VEGF-A) (human) (UniProt P15692); experiment: SPR, table row 12
human vascular endothelial growth factor A (VEGF-A) (human), sequence (P15692 220-313 limits assumed): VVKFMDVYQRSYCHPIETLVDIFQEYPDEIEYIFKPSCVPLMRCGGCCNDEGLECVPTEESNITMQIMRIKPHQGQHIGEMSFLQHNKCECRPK

[3] = biological target: human vascular endothelial growth factor A (VEGF-A) (human) (UniProt P15692); experiment: SPR, table row 15
[4] = biological target: human epidermal growth factor receptor 2 (HER2) extracellular domain (human) (UniProt P04626); experiment: SPR, table row 20
[5] = biological target: human vascular endothelial growth factor A (VEGF-A) (human) (UniProt P15692); experiment: SPR, table row 20
[6] = biological target: human vascular endothelial growth factor A (VEGF-A) (human) (UniProt P15692); experiment: SPR, table row 18
[7] = biological target: human vascular endothelial growth factor A (VEGF-A) (human) (UniProt P15692)
[8] = biological target: human vascular endothelial growth factor A (VEGF-A) (human) (UniProt P15692); experiment: SPR, table row 17
[9] = biological target: human epidermal growth factor receptor 2 (HER2) extracellular domain (human) (UniProt P04626); experiment: not stated (FIG. 6A)
[10] = biological target: human vascular endothelial growth factor A (VEGF-A) (human) (UniProt P15692); experiment: not stated (FIG. 6A)
[11] = biological target: human epidermal growth factor receptor 2 (HER2) extracellular domain (human) (UniProt P04626); experiment: SPR
[12] = biological target: human vascular endothelial growth factor A (VEGF-A) (human) (UniProt P15692); experiment: SPR

- Kd [1]: 3.22 nM
- koff [1]: 6.2e-05 s⁻¹
- kon [1]: 19300 M⁻¹ s⁻¹
- Kd [2]: 18.4 nM
- koff [2]: 0.000211 s⁻¹
- kon [2]: 11500 M⁻¹ s⁻¹
- Kd [3]: 21.8 nM
- koff [3]: 0.000254 s⁻¹
- kon [3]: 11700 M⁻¹ s⁻¹
- Kd [4]: 10.3 nM
- koff [4]: 9.72e-05 s⁻¹
- kon [4]: 9470 M⁻¹ s⁻¹
- Kd [5]: 24.2 nM
- koff [5]: 0.00026 s⁻¹
- kon [5]: 10800 M⁻¹ s⁻¹
- Kd [6]: 23.2 nM
- koff [6]: 0.00025 s⁻¹
- kon [6]: 10800 M⁻¹ s⁻¹
- Kd [7]: 24.8 nM and 26.2 nM and 31.1 nM
- koff [7]: 0.00027 s⁻¹ and 0.000282 s⁻¹ and 0.000342 s⁻¹
- kon [7]: 10900 M⁻¹ s⁻¹ and 10800 M⁻¹ s⁻¹ and 11000 M⁻¹ s⁻¹
- Kd [8]: 22.7 nM
- koff [8]: 0.00028 s⁻¹
- kon [8]: 12300 M⁻¹ s⁻¹
- Kd [9]: 26 nM
- Kd [10]: 300 nM
- Kd [11]: 32.9 nM
- Kd [12]: 23.5 nM
Substance: Trastuzumab bH1 (antibody)
